{
  "source": "patent US11529425B2",
  "about": "“Immunoconjugates comprising signal regulatory protein alpha” (DINGFU BIOTARGET CO., LTD., priority 2017, dated 2022)",
  "test_system": "RBC",
  "test": "Binding to fresh RBC diluted 2500 times, flow cytometry",
  "details": "20 μg ml^−1, FIG. 6f",
  "method": "Similarly, fresh RBC cell was diluted 2500 times, then it was incubated with 20 μg ml^−1 isotype control (human IgG1), hu56di-SIRPα, hu56di-CV1, SIRPα-Fc IgG1 and AB6.12 IgG1, respectively. The results were shown in FIG. 6f, in which serial numbers of 1, 2, 3, 4 and 5 correspond to isotype control, hu56di-SIRPα, hu56di-CV1, SIRPα-Fc IgG1 and AB6.12 IgG1.",
  "note": "“Also recorded” adds a separate entry of the source.",
  "data": [
    {"molecule": "hu56di-CV1: heterodimer of hu56di-Fc9 and CV1-Fc6, Group 14 (protein) chain 1: QVQLVESGGGLVQPGGSLRLSCAASGKMSSRRCMAWFRQAPGKERERVAKLLTTSGSTYLADSVKGRFTISRDNSKNTVYLQMNSLRAEDTAVYYCAADSFEDPTCTLVTSSGAFQYWGQGTLVTVSSGAPQVQLVESGGGLVQPGGSLRLSCAASGKMSSRRCMAWFRQAPGKERERVAKLLTTSGSTYLADSVKGRFTISRDNSKNTVYLQMNSLRAEDTAVYYCAADSFEDPTCTLVTSSGAFQYWGQGTLVTVSSEPKSSDKTHTCPPCPAPELLGGPSVFLFPPKPKDTLMISRTPEVTCVVVDVSHEDPEVKFNWYVDGVEVHNAKTKPREEQYNSTYRVVSVLTVLHQDWLNGKEYKCKVSNKALPAPIEKTISKAKGQPREPQVYTLPPCRDELTKNQVSLWCLVKGFYPSDIAVEWESNGQPENNYKTTPPVLDSDGSFFLYSALTVDKSRWQQGNVFSCSVMHEALHNHYTQKSLSLSPGK chain 2: EEELQIIQPDKSVLVAAGETATLRCTITSLFPVGPIQWFRGAGPGRVLIYNQRQGPFPRVTTVSDTTKRNNMDFSIRIGNITPADAGTYYCIKFRKGSPDDVEFKSGAGTELSVRAKPSGGGGSDKTHTCPPCPAPELLGGPSVFLFPPKPKDTLMISRTPEVTCVVVDVSHEDPEVKFNWYVDGVEVHNAKTKPREEQYNSTYRVVSVLTVLHQDWLNGKEYKCKVSNKALPAPIEKTISKAKGQPREPQVYTLPPSRDELTKNQVSLSCGVKGFYPSDIAVEWESNGQPENNYKTTPPVLDSDGSFKLASKLTVDKSRWQQGNVFSCSVMHEALHNHYTQKSLSLSPGK", "values": [
      {"measurement": "binding to RBC", "result": "stronger binding to RBC than hu56di-SIRPα; also recorded: comparable binding to RBC with AB6.12 IgG1"}
    ]}
  ]
}
